Reference: patent US20100011462A1, “FLAVIN MONOOXYGENASES AND TRANSCRIPTION FACTORS INVOLVED IN GLUCOSINOLATE BIOSYNTHESIS” (University of Copenhagen, priority 2006, published 2010)

T1: At1g65860 (Arabidopsis thaliana, UniProt Q9SS04)
T1 construct: (AT1G65860) mRNA, complete cds; made in house; host or cells: E. coli TOP10, arabinose-induced pBAD-TOPO; crude spheroplast preparation, 50 ug total protein
T1 sequence (Q9SS04 1-459): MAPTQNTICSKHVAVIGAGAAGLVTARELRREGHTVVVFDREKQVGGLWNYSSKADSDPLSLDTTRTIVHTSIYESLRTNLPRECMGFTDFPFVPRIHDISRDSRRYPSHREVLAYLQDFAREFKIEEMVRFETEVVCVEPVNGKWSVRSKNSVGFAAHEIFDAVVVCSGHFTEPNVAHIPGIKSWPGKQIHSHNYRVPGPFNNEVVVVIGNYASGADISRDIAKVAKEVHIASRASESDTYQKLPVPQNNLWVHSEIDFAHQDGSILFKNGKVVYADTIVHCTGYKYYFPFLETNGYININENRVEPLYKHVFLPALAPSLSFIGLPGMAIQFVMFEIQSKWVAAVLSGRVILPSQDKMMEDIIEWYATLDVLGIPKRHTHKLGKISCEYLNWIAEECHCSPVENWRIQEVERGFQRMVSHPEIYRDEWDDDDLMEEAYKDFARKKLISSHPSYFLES


Assays:
At1g65860 = molecular target: T1, At1g65860; test: Enzymatic activity of heterologously expressed At1g65860 in E. coli spheroplasts; type: biochemical; details: 1 hour at 30° C.; for oxygenation on the sulfur: tested as substrates at 0.1 mM, 1 mM and 10 mM
Method: FIG. 3—Enzymatic activity of heterologously expressed At1g65860 in E. coli spheroplasts using the arabinose inducible pBad TOPO® TA Expression system (Invitrogen). 50 μg total E. coli protein were used for each assay and allowed to proceed for 1 hour at 30° C. 4-methylsulfinylbutyl glucosinolate and desulfo-methylsulfinylbutyl glucosinolate production were quantified by HPLC (monitored at 229 nm). Compound identities were confirmed by comparison of both retention times, UV light absorption profiles and mass by LC/MS with those of authentic standards.
At1g65860 pBAD-TOPO constructs and a vector control (empty pBAD-TOPO) were transformed into the E. coli strain TOP10 (Invitrogen). Single colonies were grown overnight in Luria broth (LB) with 100 μg/ml ampicillin. One milliliter of the overnight culture was used to inoculate 100 ml of LB medium supplemented with 100 μg/ml ampicillin and the culture was grown at 37° C., 250 rpm to OD600=0.5, at which time arabinose (final conc. 0.02%) was added. The culture was grown at 28° C., 250 rpm for 16 h.
Following arabinose induction, spheroplasts of E. coli cells were prepared. The culture was chilled on ice, pelleted at 2500 g for 10 min, followed by resuspension by sequential addition of 8.3 ml 200 mM Tris/HCl, pH 7.6, 1.42 g sucrose, 16.7 μL […], 41.7 μL 0.1M phenylmethylsulfonyl fluoride, 33.3 μL lysozyme (50 mg/ml) and finally 8.31 mL ice-cold water with slow stirring. After 30 min incubation at 4° C. with slow stirring, 166 μL 1M Mg(OAc)2 was added and membranes were pelleted at 3000 g for 10 min at 4° C. Pellet was resuspended in 1800 μL 10 mM Tris/HCl pH 7.6/14 mM Mg(OAc)2/60 mM KOAc. The suspension was homogenized in a Potter-Elvehjem followed by the addition of 5 μL RNAse (10 mg/ml) and 5 μL DNAse (5 mg/ml) and slowly stirred for 30 min at 4° C. 235 μL 87% glycerol was added and the spheroplasts were stored at −80° C. for several weeks without loss of activity.
The 100 ul assay solution contained substrate and spheroplasts corresponding to 50 ug total E. coli protein in a 0.1 M Tricine at pH 7.9, 0.25 mM NADPH buffer. The reaction was allowed to proceed for 1 hour at 30° C. and terminated by the addition of 100 μL methanol and centrifuged at 5000 g for 2 min. The supernatant was moved to new tubes followed by lyophilization to dryness and finally redissolved in 50 μL water.
4-methylthiobutyl glucosinolate and desulfo 4-methylthiobutyl glucosinolate were used as substrates with final concentrations in the assay as given in FIG. 3. 4-methylthiobutyl oxime, dihomomethionine, methionine were tested as substrates at 0.1 mM, 1 mM and 10 mM final concentrations. […]

[1] = Activity of FMOs of the invention in E. coli or in seeds using a variety of substrates; type: biochemical, Arabidopsis thaliana; details: for S-oxygenation activity: desulfo and intact glucosinolates; for substrate specificity: methylthio glucosinolates in Arabidopsis
From the text: FIG. 11—Heterologous expression of At1g62560 in E. coli using 4MTB as substrate, with an empty vector as control.
FIG. 13—Heterologous expression of At1g62540 in E. coli using 4MTB as substrate, with an empty vector as control.
FIG. 15—Heterologous expression of At1g12140 in E. coli using desulfo-glucosinolates from glucosinolates from Arabidopsis Col-0 seeds as substrate mix.
FIG. 17—Heterologous expression of At1g62570 in E. coli using desulfo-glucosinolates from glucosinolates from Arabidopsis Col-0 seeds as substrate mix, with an empty vector as control.
FIGS. 11-18 show the activity of At1g62560, At1g65860, At1g62540, At1g12140 and At1g62570 in E. coli or in seeds using a variety of substrates.

Molecule	oxygenation on the sulfur (At1g65860)	production of 4MSB from 4MTB (At1g65860; 50 μg total E. coli protein, HPLC 229 nm)	S-oxygenation activity [1]	substrate specificity [1]
CSCCCC/C=N\O [4-methylthiobutyl oxime]	No oxygenation on the sulfur	–	–	–
CSCCCCC(N)C(=O)O (stereo not shown) [dihomomethionine]	No oxygenation on the sulfur	–	–	–
CSCCCC/C(=N/OS(=O)(=O)O)S[C@@H]1O[C@H](CO)[C@@H](O)[C@H](O)[C@H]1O [4MTB, 4-methylthiobutyl glucosinolate]	–	production of 4MSB from 4MTB	–	–
CSCC[C@H](N)C(=O)O [methionine]	No oxygenation on the sulfur	–	–	–
At1g12140: flavin-containing monooxygenase (FMO) from A. thaliana, SEQ ID NO 10 (protein, listed as Arabidopsis thaliana) MAPARTRVNSLNVAVIGAGAAGLVAARELRRENHTVVVFERDSKVGGLWVYTPNSEPDPLSLDPNRTIVHSSVYDSLRTNLPRECMGYRDFPFVPRPEDDESRDSRRYPSHREVLAYLEDFAREFKLVEMVRFKTEVVLVEPEDKKWRVQSKNSDGISKDEIFDAVVVCNGHYTEPRVAHVPGIDSWPGKQIHSHNYRVPDQFKDQVVVVIGNFASGADISRDITGVAKEVHIASRSNPSKTYSKLPGSNNLWLHSMIESVHEDGTIVFQNGKVVQADTIVHCTGYKYHFPFLNTNGYITVEDNCVGPLYEHVFPPALAPGLSFIGLPWMTLQFFMFELQSKWVAAALSGRVTLPSEEKMMEDVTAYYAKREAFGQPKRYTHRLGGGQVDYLNWIAEQIGAPPGEQWRYQEINGGYYRLATQSDTFRDKWDDDHLIVEAYEDFLRQKLISSLPSQLLES	–	–	S-oxygenation activity	mainly converts long-chain (especially octyl)methylthioalkyl-into methylsulfinyl glucosinolates
At1g62540: flavin-containing monooxygenase (FMO) from A. thaliana, SEQ ID NO 8 (protein, listed as Arabidopsis thaliana) MAPAQNPISSQHVVVIGAGAAGLVAARELSREGHTVVVLEREKEVGGLWIYSPKAESDPLSLDPTRSIVHSSVYESLRTNLPRECMGFTDFPFVPRFDDESRDSRRYPSHMEVLAYLQDFAREFNLEEMVRFEIEVVRVEPVNGKWRVWSKTSGGVSHDEIFDAVVVCSGHYTEPNVAHIPGIKSWPGKQIHSHNYRVPGPFENEVVVVIGNFASGADISRDIAKVAKEVHIASRASEFDTYEKLPVPRNNLWIHSEIDTAYEDGSIVFKNGKVVYADSIVYCTGYKYRFTFLETNGYMNIDENRVEHLYKHVFPPALSPGLSFVGLPSMGIQFVMFEIQSKWVAAVLSRRVTLPTEDKMMEDISAWYASLDAVGIPKRYTHKLGKIQSEYLNWVAEECGCPLVEHWRNQQIVRGYQRLVSHPETYRDEWDDNDLMEEAYEDFARKKLISFHPSHIL	–	–	S-oxygenation activity	broad specificity towards all methylthio (MT) glucosinolates
At1g62570: flavin-containing monooxygenase (FMO) from A. thaliana, SEQ ID NO 6 (protein, listed as Arabidopsis thaliana) MAPAPSPINSQHVAVIGAGAAGLVAARELRREGHTVVVLDREKQVGGLWVYTPETESDELGLDPTRPIVHSSVYKSLRTNLPRECMGYKDFPFVPRGDDPSRDSRRYPSHREVLAYLQDFATEFNIEEMIRFETEVLRVEPVNGKWRVQSKTGGGFSNDEIYDAVVMCCGHFAEPNIAQIPGIESWPGRQTHSHSYRVPDPFKDEVVVVIGNFASGADISRDISKVAKEVHIASRASKSNTFEKRPVPNNNLWMHSEIDTAHEDGTIVFKNGKVVHADTIVHCTGYKYYFPFLETNNYMRVDDNRVEPLYKHIFPPALAPGLSFIGLPAMGLQFYMFEVQSKWVAAVLSGRVTLPSVDEMMDDLKLSYETQEALGIPKRYTHKLGKSQCEYLDWIADLCGFPHVEHWRDQEVTRGYQRLGNQPETFRDEWDDDDLMEEAYEDFARLNLINFHPSRFLESGR	–	–	S-oxygenation activity	broad specificity towards all methylthio (MT) glucosinolates
